Reference: article PMC11167000 (2024)
No end group written: not given here.

B1: BMPR1B (receptor)
chain: KKEDGESTAPTPRPKVLRCKCHHHCPEDSVNNICSTDGYCFTMIEEDDSGLPVVTSGCLGLEGSDFQCRDTPIPHQRRSIECCTERNECNKDLHPTLPPLKNRDFVDGPIHHR
B2: TWSG1 NTD Asp34Ala (protein)
chain: CNKALCASAVSKCLIQELCQCRPGEGNCSCCKECMLCLGALWDECCDCVGMCNPRNYS
modifications: disulfide (positions not given here); also: 7 disulfides in NTD, pairing not given here

Experiments:
[1] = biological target: T1, human Growth Differentiation Factor 5 (GDF5, A382–R501) (human, UniProt P43026 382-501); experiment: SPR; 2 mM CaCl2; replicate 1
T1 chain: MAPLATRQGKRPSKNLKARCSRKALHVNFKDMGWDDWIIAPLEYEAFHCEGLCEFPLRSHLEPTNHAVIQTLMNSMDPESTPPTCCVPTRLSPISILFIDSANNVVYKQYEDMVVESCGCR

[2] = biological target: T2, human BMP2 (human, UniProt P12643 283-396); experiment: SPR; 2 mM CaCl2; replicate 1
T2 chain: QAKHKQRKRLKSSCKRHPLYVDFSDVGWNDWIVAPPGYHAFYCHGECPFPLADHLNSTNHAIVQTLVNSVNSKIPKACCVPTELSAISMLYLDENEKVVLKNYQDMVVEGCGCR

[3] = biological target: T3, human BMP7 (human, UniProt P18075 293-431); experiment: SPR; 2 mM CaCl2; replicate 1
T3 chain: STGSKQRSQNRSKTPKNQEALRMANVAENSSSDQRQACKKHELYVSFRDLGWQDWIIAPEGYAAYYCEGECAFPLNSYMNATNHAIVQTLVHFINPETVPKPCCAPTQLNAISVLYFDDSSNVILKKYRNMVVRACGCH

[4] = biological target: T1, human Growth Differentiation Factor 5 …; experiment: SPR; 2 mM EDTA; replicate 2
[5] = biological target: T2, human BMP2; experiment: SPR; 2 mM EDTA; replicate 2
[6] = biological target: T3, human BMP7; experiment: SPR; 2 mM EDTA; replicate 2
[7] = biological target: T1, human Growth Differentiation Factor 5 …; experiment: SPR; 2 mM EDTA; replicate 1
[8] = biological target: T2, human BMP2; experiment: SPR; 2 mM EDTA; replicate 1
[9] = biological target: T3, human BMP7; experiment: SPR; 2 mM EDTA; replicate 1
[10] = biological target: T1, human Growth Differentiation Factor 5 …; experiment: SPR; 2 mM CaCl2; replicate 2
[11] = biological target: T2, human BMP2; experiment: SPR; 2 mM CaCl2; replicate 2
[12] = biological target: T3, human BMP7; experiment: SPR; 2 mM CaCl2; replicate 2
[13] = biological target: T1, human Growth Differentiation Factor 5 …; experiment: SPR; Ca; replicate 2
[14] = biological target: T3, human BMP7; experiment: SPR; Ca; replicate 2
[15] = biological target: T3, human BMP7; experiment: SPR; Ca; replicate 1
[16] = biological target: T1, human Growth Differentiation Factor 5 …; experiment: SPR; Ca; replicate 1
[17] = biological target: T2, human BMP2; experiment: SPR; Ca; replicate 2
[18] = biological target: T2, human BMP2; experiment: SPR; Ca; replicate 1

| Binder | Kd [1] [nM] | Kd [2] [nM] | Kd [3] [nM] | Kd [4] [nM] | Kd [5] [nM] | Kd [6] [nM] | Kd [7] [nM] | Kd [8] [nM] | Kd [9] [nM] | Kd [10] [nM] | Kd [11] [nM] | Kd [12] [nM] | Kd [13] [nM] | Kd [14] [nM] | Kd [15] [nM] | Kd [16] [nM] | Kd [17] [nM] | Kd [18] [nM] |
| --- | --- | --- | --- | --- | --- | --- | --- | --- | --- | --- | --- | --- | --- | --- | --- | --- | --- | --- |
| B1 | 4550 | 2120 | 2940 | 4010 | 9540 | 12800 | 4720 | 8140 | 13500 | 2840 | 1650 | 5740 |  |  |  |  |  |  |
| B2 |  |  |  |  |  |  |  |  |  |  |  |  | 60.6 | 557 | 247 | 121 | 771 | 943 |
